These results are taken from publication doi:10.1101/2020.09.27.316166.

Like-named read-outs stand apart in the source and are kept apart here.

For series [1], the target named is T1, FL-hcGAS (human cyclic GMP-AMP synthase) (human, UniProt Q8N884 1-522). The experiment in a line: phase separation microscopy.
The target in series [2] is T1, FL-hcGAS (human cyclic GMP-AMP synthase). The experiment in a line: phase separation microscopy. The source holds these as a separate data set.

T1 sequence (Q8N884 whole entry): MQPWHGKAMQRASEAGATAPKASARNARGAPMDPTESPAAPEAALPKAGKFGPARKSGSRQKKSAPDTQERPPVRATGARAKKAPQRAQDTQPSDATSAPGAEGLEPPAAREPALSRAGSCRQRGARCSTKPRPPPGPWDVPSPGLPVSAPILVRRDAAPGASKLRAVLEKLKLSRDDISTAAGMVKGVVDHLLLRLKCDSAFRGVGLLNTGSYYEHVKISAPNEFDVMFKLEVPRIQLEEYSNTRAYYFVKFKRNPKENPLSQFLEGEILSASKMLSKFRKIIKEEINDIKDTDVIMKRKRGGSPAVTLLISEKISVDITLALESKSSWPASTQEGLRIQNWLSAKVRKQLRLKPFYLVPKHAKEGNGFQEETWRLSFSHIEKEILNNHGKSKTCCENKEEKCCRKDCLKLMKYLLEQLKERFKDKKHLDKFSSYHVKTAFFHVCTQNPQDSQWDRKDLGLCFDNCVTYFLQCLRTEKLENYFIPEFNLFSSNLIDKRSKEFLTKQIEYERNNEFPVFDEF

Consider AGAGAGAGAGAGAGAGAGAGAGAGAGAGAGAGAGAGAGAGAGAGAGAG (ssDNA) [48 nt ssDNA (AG repeat)], for which, in series [1], the binding result is listed as “binds”.

B1: ISD (interferon stimulatory DNA, 45 bp) (dsDNA)
DNA 1: TACAGATCTACTAGTGATCTATGACTGATCTGTACATGATCTACA
DNA 2: TGTAGATCATGTACAGATCAGTCATAGATCACTAGTAGATCTGTA
B1: in series [2], the binding result is on record as “binds”.
